# Measured values reported in a protein production outcome set (Wang et al. 2014).
# Assay: label from the status in PepcDB records
# 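Further: failed if final PepcDB status was selected cloned or expressed and not failed if soluble or beyond.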
row,Sequence,protein production
1,MKPIVIKRDGSKAPFNRDRIQAAVESAAEHADQEIAIYALNVALAVELKLRDYDEVHITEIQTLVENELMQGPYKALARSYIEYRHDRDVAREKQSK,failed
2,MKPKSMKEKLVKDMMSILNLRIKMIDVNGLLKELDDALDKVVAKKEPESFLKPIISPIEDYQKSVRQIQAQFTDAPKFNEEGAYPQFLSCGLLEIKGKNGASMEFCLPKVYPFPPKSLYIEHEKDGQFLREMLMRLLSSAPLVQLEVILVDALSLGGIFNLARRLLHKDNDFIYQQRILTESKEIEEALKHLYEYLKVNLQEKLAGYKDFAHYNEEKKDRLPLKALFLSGVDALSQNALYYLEKIMRFGSKNGVLSFVNLESEKNNKSTEDLKRYAECFKDRTSFERLKYLNIEVINDHGIQSKHMKDFADKIKAYYEKKKAVKRELKDLQKDEKFWTESSQFKVSVPVGWDINHKEVCFEIGNEQNHTLICGRSGSGKSNFLHVLIQNLAFYYAPNEVQLFLLDYKEGVEFNAYTDPNILEHARLVSVASSVGYGMSFLNWLCKEMQERANLFKQFNVKDLSDYRKHGEIPRLIVVIDEFQVLFSDNKSTKAVEGHLNTLLKKGRSYGVHLILATQTMRGTDINRSIMAQIANRIALSMDAEDSNSILGDDAACELVRPEGIFNNNGGHQKHHTKMSIPKAPDDFKPFIKKIHRDFNQRNLVPVEHKIYNGEKPLEMPNTLKANEMRLHLGKEADYEQKDLMVGFENSESHLLVVSQDLSARIALMKLFAQNFKTANKELLFYNAEKRLARELDELKKHHITPMQGPLGSVLDTAMNPNSVLVIDNLNEAKELHDKIGVEKLRSFLEKATDNEQYCIIFAHDLKQIQANYDLSKLKELLNNHFKQRLAFRCNGENLSAIKKDLPLLTNELNALFVELSKDSHTEFRPFSL,failed
3,MKPPADNNKEGAESHKLESESKPIWKSMSMFLVPLLLSNVLQSVGQLFGMVVVGRWLGVNDLAAISAFFPLFFLLVSFVIGIGSGSSILIGQAFGAKNEDRLKAIVGTTLTFTFIIGVLLAIIGSIFAMDIMRLMGTPENIIEISVHYARILFISMPVLFLYFAYTTFMRGTGDSKTPFYFLIVSTALNMILLPILIFGWLGAPKLDVYGAAYASVISTVITFIVMLVYLKKKNHPLQLDGTVRKYLRMDGELLKLLLRLGIPASINMILVSLSEIAVIAFVNRYGSDATAAYGVVNQVASYVQMPAVSLGITVSIFAAQSIGANQFDRLQKVVKAGIIMNYVIGGVLISLIYVFSRDILSLFLTSQTTIEIAHSLVMITLWSYLIFGHAQIISATMRASGTVLWPTVIGVVSIWLVEVPVAYYLSYHTSLGIEGIWIGYPAAFIVSLILQYAYYKLSWQKKRITRLVS,not failed
4,MKPRRKSALLWGAVAALSFLVLHQGYLLAGGAFLGVGPVAAVTVAVFVGGAAVSYYAEGRFGLFGWRR,failed
5,MKQEEDKFTGLPENAFRELKAGEVYNPLMSPSKNYPEVNFWSVTWGIAMAILFSAAAAYLGLKVGQVFEAAIPIAIIAVGVSGAAKRKNALGENVIIQSIGACSGVIVAGAIFTLPALYILQVKYPEMTVSFMQVFISSLLGGVLGILFLIPFRKYFVSDMHGKYPFPEATATTQVLVSGEKSGSQAKPLLMAGMIGGLYDFIVATFGWWNENFTTRVCGAGEMLAEKAKLVFKVNTGAAVLGLGYIVGLKYASIICAGSLAVWWIIIPGMSAIWGDSVLNAWNPEITSTVGMMSPEEIFKYYAKSIGIGGIAMAGVIGIIRSWGIIKSAVGLAAKEMGGKGNVEKNIVRTQRDLSMKIIAIGSILTLILIVLFFYFDIMQGNIVHTLVAIALVAGISFLFTTVAANAIAIVGTNPVSGMTLMTLILASVVMVAVGLKGPSGMVAALVMGGVVCTALSMAGGFITDLKIGYWLGSTPAKQETWKFLGTIVSAATVGGVMIILNKTYGFTSGALAAPQANAMAAVIEPLMSGVGAPWLLYGIGAILAIVLTFFKIPALAFALGMFIPLELNVPLVVGGAVNWYVTSRSKDTALNTERGEKGTLLASGFIAGGALMGVVSAAMRFGGINLVNEAWLNNTWSEVLALGAYALLILYFIKASMKVK,failed
